# Source: the Human Domainome abundance scans (Beltran et al. 2025)
# ± gives the uncertainty stated by the source.
# B1: Steroid hormone receptor ERR2, residues 100 to 176; numbered along this chain, O95718 (parent)
# chain: KRLCLVCGDIASGYHYGVASCEACKAFFKRTIQGNIEYSCPATNECEITKRRRKSCQACRFMKCLKVGMLKEGVRLD
# Variants of: B1
# Assay: abundance fitness (aPCA) (normalised: wild type 0, dead -1); higher = more abundant; growth selection in yeast, the domain comes from the species named
# Settings: Homo sapiens
row,Variant,abundance fitness
1,KRLCLVCGDIASGYHYGVASCEACKAFFKRTIQGNIEYSCPATNECEITKRRRKSCQACRFMKCLKVGMLKLGVRLD [E72L],-0.424 ± 0.066
2,KRLCLVCGDIASGYHYGVASCEACKAFFKRTIQGNIEYSCPATNECEITKRRRKSCQACRFMKCLKVGMLKMGVRLD [E72M],-0.448 ± 0.12
3,KRLCLVCGDIASGYHYGVASCEACKAFFKRTIQGNIEYSCPATNECEITKRRRKSCQACRFMKCLKVGMLKNGVRLD [E72N],0.02 ± 0.092
4,KRLCLVCGDIASGYHYGVASCEACKAFFKRTIQGNIEYSCPATNECEITKRRRKSCQACRFMKCLKVGMLKPGVRLD [E72P],-0.029 ± 0.065
5,KRLCLVCGDIASGYHYGVASCEACKAFFKRTIQGNIEYSCPATNECEITKRRRKSCQACRFMKCLKVGMLKQGVRLD [E72Q],-0.16 ± 0.075
6,KRLCLVCGDIASGYHYGVASCEACKAFFKRTIQGNIEYSCPATNECEITKRRRKSCQACRFMKCLKVGMLKRGVRLD [E72R],-0.355 ± 0.057
7,KRLCLVCGDIASGYHYGVASCEACKAFFKRTIQGNIEYSCPATNECEITKRRRKSCQACRFMKCLKVGMLKSGVRLD [E72S],-0.051 ± 0.054
8,KRLCLVCGDIASGYHYGVASCEACKAFFKRTIQGNIEYSCPATNECEITKRRRKSCQACRFMKCLKVGMLKTGVRLD [E72T],-0.104 ± 0.063
9,KRLCLVCGDIASGYHYGVASCEACKAFFKRTIQGNIEYSCPATNECEITKRRRKSCQACRFMKCLKVGMLKWGVRLD [E72W],-0.503 ± 0.098
10,KRLCLVCGDIASGYHYGVASCEACKAFFKRTIQGNIEYSCPATNECEITKRRRKSCQACRFMKCLKVGMLKYGVRLD [E72Y],-0.501 ± 0.15
11,KRLCLVCGDIASGYHYGVASCEACKAFFKRTIQGNIEYSCPATNECEITKRRRKSCQACRFMKCLKVGMLKEAVRLD [G73A],0.08 ± 0.049
12,KRLCLVCGDIASGYHYGVASCEACKAFFKRTIQGNIEYSCPATNECEITKRRRKSCQACRFMKCLKVGMLKECVRLD [G73C],-0.126 ± 0.084
13,KRLCLVCGDIASGYHYGVASCEACKAFFKRTIQGNIEYSCPATNECEITKRRRKSCQACRFMKCLKVGMLKEDVRLD [G73D],0.133 ± 0.079
14,KRLCLVCGDIASGYHYGVASCEACKAFFKRTIQGNIEYSCPATNECEITKRRRKSCQACRFMKCLKVGMLKEEVRLD [G73E],0.118 ± 0.052
15,KRLCLVCGDIASGYHYGVASCEACKAFFKRTIQGNIEYSCPATNECEITKRRRKSCQACRFMKCLKVGMLKEFVRLD [G73F],-0.369 ± 0.14
16,KRLCLVCGDIASGYHYGVASCEACKAFFKRTIQGNIEYSCPATNECEITKRRRKSCQACRFMKCLKVGMLKEHVRLD [G73H],-0.104 ± 0.12
17,KRLCLVCGDIASGYHYGVASCEACKAFFKRTIQGNIEYSCPATNECEITKRRRKSCQACRFMKCLKVGMLKEIVRLD [G73I],-0.441 ± 0.19
18,KRLCLVCGDIASGYHYGVASCEACKAFFKRTIQGNIEYSCPATNECEITKRRRKSCQACRFMKCLKVGMLKEKVRLD [G73K],0.017 ± 0.068

row,Variant,abundance fitness
1,KRLCLVCGDIASGYHYGVASCEACKAFFKRTIQGNIEYSCPATNECEITKRRRKSCQACRFMKCLKVGMLKELVRLD [G73L],-0.016 ± 0.046
2,KRLCLVCGDIASGYHYGVASCEACKAFFKRTIQGNIEYSCPATNECEITKRRRKSCQACRFMKCLKVGMLKEMVRLD [G73M],0.007 ± 0.069
3,KRLCLVCGDIASGYHYGVASCEACKAFFKRTIQGNIEYSCPATNECEITKRRRKSCQACRFMKCLKVGMLKENVRLD [G73N],-0.107 ± 0.11
4,KRLCLVCGDIASGYHYGVASCEACKAFFKRTIQGNIEYSCPATNECEITKRRRKSCQACRFMKCLKVGMLKEPVRLD [G73P],0.019 ± 0.071
5,KRLCLVCGDIASGYHYGVASCEACKAFFKRTIQGNIEYSCPATNECEITKRRRKSCQACRFMKCLKVGMLKEQVRLD [G73Q],0.046 ± 0.072
6,KRLCLVCGDIASGYHYGVASCEACKAFFKRTIQGNIEYSCPATNECEITKRRRKSCQACRFMKCLKVGMLKERVRLD [G73R],-0.056 ± 0.043
7,KRLCLVCGDIASGYHYGVASCEACKAFFKRTIQGNIEYSCPATNECEITKRRRKSCQACRFMKCLKVGMLKESVRLD [G73S],-0.031 ± 0.054
8,KRLCLVCGDIASGYHYGVASCEACKAFFKRTIQGNIEYSCPATNECEITKRRRKSCQACRFMKCLKVGMLKETVRLD [G73T],0.002 ± 0.063
9,KRLCLVCGDIASGYHYGVASCEACKAFFKRTIQGNIEYSCPATNECEITKRRRKSCQACRFMKCLKVGMLKEVVRLD [G73V],-0.132 ± 0.05
10,KRLCLVCGDIASGYHYGVASCEACKAFFKRTIQGNIEYSCPATNECEITKRRRKSCQACRFMKCLKVGMLKEWVRLD [G73W],-0.031 ± 0.057
11,KRLCLVCGDIASGYHYGVASCEACKAFFKRTIQGNIEYSCPATNECEITKRRRKSCQACRFMKCLKVGMLKEYVRLD [G73Y],-0.6 ± 0.22
12,KRLCLVCGDIASGYHYGVASCEACKAFFKRTIQGNIEYSCPATNECEITKRRRKSCQACRFMKCLKVGMLKEGARLD [V74A],0.126 ± 0.05
13,KRLCLVCGDIASGYHYGVASCEACKAFFKRTIQGNIEYSCPATNECEITKRRRKSCQACRFMKCLKVGMLKEGCRLD [V74C],-0.501 ± 0.13
14,KRLCLVCGDIASGYHYGVASCEACKAFFKRTIQGNIEYSCPATNECEITKRRRKSCQACRFMKCLKVGMLKEGDRLD [V74D],0.03 ± 0.091
15,KRLCLVCGDIASGYHYGVASCEACKAFFKRTIQGNIEYSCPATNECEITKRRRKSCQACRFMKCLKVGMLKEGERLD [V74E],0.08 ± 0.054
16,KRLCLVCGDIASGYHYGVASCEACKAFFKRTIQGNIEYSCPATNECEITKRRRKSCQACRFMKCLKVGMLKEGFRLD [V74F],-0.171 ± 0.091
17,KRLCLVCGDIASGYHYGVASCEACKAFFKRTIQGNIEYSCPATNECEITKRRRKSCQACRFMKCLKVGMLKEGGRLD [V74G],-0.089 ± 0.039
